# Measured values: article PMC2939893, “Mammalian Otolin: A Multimeric Glycoprotein Specific to the Inner Ear that Interacts with Otoconial Matrix Protein Otoconin-90 and Cerebellin-1” (PLoS ONE, 2010)
# B1: C-terminal FLAG-tagged Otolin (natural protein, mouse, UniProt Q4ZJM7 24-482, looked up)
# chain: KTTPYTKFTKKSEGKEMLKGLKPSSGFFLDGEETVHTETAAMAEPTTGSPALAMAESTAGPSASATTRLLPFESFSLDTTGFVLNCCHCCSFVTGQKGEPGKMGKQGPKGETGDTGSPGHPGTTGPQGPKGQKGEKGLKGDRGDQGAGGIPGYPGKPGEQGALGPKGDKGTIGPAGTKGQKGSKGELCGNGTKGEKGDPGASGAHGFIGEPGAKGEKGGVGEKGYRGDLGERGEKGQKGEKGMEGEKGSRGDVGSEGKRGSDGLPGLRGDSGPKGEKGEIGSPGFTGPAGPKGELGSKGVRGPTGKKGSRGVKGSKGEATQVPQSAFSALLSKPFPPPNVPIKFDKILSNDQGDYSPVTGKFNCSVPGTYIFSYHVTVRGRPARISLVARNRKQFKSRETLYGQQVDQASLLLILKLSAGDQVWLEVSKDWNGLYVGPEDDSIFSGFLLYPEETFSKSP
# modifications: hydroxyproline at Pro-141, 144, 174, 177, 180, 222, 234, 288 and 306; Lys-189 and Lys-315 hydroxylated and glycosylated with a glucosyl-galactosyl group (mass spectrometry of purified recombinant Otolin)
# notes: Otolin, mouse, GenBank DQ002405; entire coding region (482 amino acids, own signal peptide) cloned and expressed; the secreted protein was collected from the medium; also called otolin-FLAG; recombinant Otolin; source: HEK293T, transiently transfected; not shown: FLAG, C-terminal, kept
# Target: the molecule itself
# Assay: SEC; supernatant (500 µl) of transfected HEK293T cells with FLAG-tagged Otolin on Superdex 200 HR 10/30 in PBS; fractions immunoblotted with anti-FLAG M2
protein,measurement,value
B1,binding result,binds
